Results: patent US20050176124

Molecular target: T1, EGF receptor autophosphorylation site peptide DADEpYL-NH2
T1 chain: DADEYL

B1: DSP-3-glutathione-S-transferase (GST) fusion protein (protein)
chain: MGNGMNKILPGLYIGNFKDARDAEQLSKNKVTHILSVHDSARPMLEGVKYLCIPAADSPSQNLTRHFKESIKFIHECRLRGESCLVHCLAGVSRSVTLVIAYIMTVTDFGWEDALHTVRAGRSCANPNVGFQRQLQEFEKHEVHQYRQWLKEEYGESPLQDAEEAKNILAAPGILKFWAFLRRL
Km (phosphatase assay, release of 32P from substrate peptide): Km=1.2 µM | specific activity (phosphatase assay, release of 32P from substrate peptide): 88.4 nmol/min/mg
